Patent CN113461812A (BEIJING LUFEI BIOTECHNOLOGY CO LTD, dated 2021)

How the values were obtained:
[1] = target: 新型冠状病毒(假病毒) S蛋白 (SARS-CoV-2, UniProt P0DTC2 14-1273); experiment: cell-based or functional assay
[2] = target: T1, 新型冠状病毒RBD蛋白 (野生型) (SARS-CoV-2, UniProt P0DTC2 319-541); experiment: SPR (Biacore), 1:1 binding fit
T1 construct: domain: RBD; also called WT; 新冠病毒RBD蛋白野生型

B1: 人源化新冠病毒中和性抗体nCoV-00D (antibody, V domains shown)
VH: QVQLQQSGAELVKPGASVKLSCKTSGYTFTRYYIYWVKQRPGQGLEWIGEINPNNGGTNFNEKFKSKATLTVDKSSNTAYMQLSSLTSEDSAVYYCTIFITTVIARDYWGQGTLVTVSA
VL: DIVLTQSPASLAVSLGQRATISCRASESVEYSGTTLMQWFQQKPGQPPKLLIYAASNVESGVPARFSGSGSGTDFSLNIHPVEEDDVAMYFCHQSREVPWTFGGGTKLEIKR
notes: also called nCoV-00D抗体
B1 was tested, and the “IC50, 假病毒中和试验 (Huh7细胞, 荧光素酶值)” value [1] was about 9 ng/mL, the Kd [2] was 0.532 nM and the koff [2] was 0.000133 s⁻¹. For the same binder, the kon [2] was 251000 M⁻¹ s⁻¹.
